The text below walks through data of patent US20250339531A1, “DUX4 POLYPEPTIDES AND NUCLEIC ACIDS FOR TREATING INFLAMMATORY AND AUTOIMMUNE CONDITIONS” (Fred Hutchinson Cancer Center, priority 2021, published 2025).

This test relates to proteins that co-immunoprecipitated with DUX4-CTD constructs expressed in MB135 myoblasts. Nature of the test: LC-MS of proteins co-immunoprecipitated with DUX4-CTD (Table 1) and western validation. The test is classed as binding, human. As to conditions: kind of count not given; for 4. mL1dL2 + Dox + IFNG: LC-MS value per protein co-immunoprecipitated with DUX4-CTD construct mL1dL2 in MB135 myoblasts; for 4. + IFNG mix: LC-MS value per protein co-immunoprecipitated from MB135 myoblasts, + IFNG mix sample (no Dox). Also noted: key to 4. mL1dL2 + Dox + IFNG / 4. + IFNG mix / 4. longCTD + Dox + IFNG / 3. + IFNg + Dox longCTD / 3. + Dox longCTD / 3. + IFNG longCTD: peptide-spectrum matches (PSMs) per protein. The method in brief: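 FLAG-tagged DUX4-CTD expressed in doxycycline-induced MB135 myoblasts, some also IFNG-treated; nuclear lysates in pH 7.4 NP-40 IP buffer were pre-cleared, then anti-FLAG immunoprecipitated 3 h at 4 °C. For LC-MS, FLAG-peptide elution, in-gel trypsin digest, Orbitrap analysis; proteins with ≥2 PSMs in both experiments categorised and ranked by total PSMs.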

B1: AP2M1 (protein)
chain: MIGGLFIYNHKGEVLISRVYRDDIGSRQAADSAVFSSSGPFPGEWLEANRRNAVDAFRVNVIHARQQVRSPVTNIARTSFFHVKRSNIWLAAVTKQNVNAAMVFEFLYKMCDVMAAYFGKISEENIKNNFVLIYELLDEILDFGYPQNSETGALKTFITQQGIKSQHQTKEEQSQITSQVTGQIGWRREGIKYRRNELFLDVLESVNLLMSPQGQVLSAHVSGRVVMKSYLSGMPECKFGMNDKIVIEKQGKGTADETSKSGKQSIAIDDCTFHQCVRLSKFDSERSISFIPPDGEFELMRYRTTKDIILPFRVIPLVREVGRTKLEVKVVIKSNFKPSLLAQKIEVRIPTPLNTSGVQVICMKGKAKYKASENAIVWKIKRMAGMKESQISAEIELLPTNDKKKWARPPISMNFEVPFAPSGLKVRYLKVFEPKLNYSDHDVIKWVRYIGRSGIYETRC
In the case of B1, the “4. mL1dL2 + Dox + IFNG” value was determined as 1.

B2: ATP2B1 (protein)
chain: GDMANNSVAYSGVKNSLKEANHDGDFGITLAELRALMELRSTDALRKIQESYGDVYGICTKLKTSPNEGLSGNPADLERREAVFGKNFIPPKKPKTFLQLVWEALQDVTLIILEIAAIVSLGLSFYQPPEGDNALCGEVSVGEEEGEGETGWIEGAAILLSVVCVVLVTAFNDWSKEKQFRGLQSRIEQEQKFTVIRGGQVIQIPVADITVGDIAQVKYGDLLPADGILIQGNDLKIDESSLTGESDHVKKSLDKDPLLLSGTHVMEGSGRMVVTAVGVNSQTGIIFTLLGAGGEEEEKKDEKKKEKKNKKQDGAIENRNKAKAQDGAAMEMQPLKSEEGGDGDEKDKKKANLPKKEKSVLQGKLTKLAVQIGKAGLLMSAITVIILVLYFVIDTFWVQKRPWLAECTPIYIQYFVKFFIIGVTVLVVAVPEGLPLAVTISLAYSVKKMMKDNNLVRHLDACETMGNATAICSDKTGTLTMNRMTVVQAYINEKHYKKVPEPEAIPPNILSYLVTGISVNCAYTSKILPPEKEGGLPRHVGNKTECALLGLLLDLKRDYQDVRNEIPEEALYKVYTFNSVRKSMSTVLKNSDGSYRIFSKGASEIILKKCFKILSANGEAKVFRPRDRDDIVKTVIEPMASEGLRTICLAFRDFPAGEPEPEWDNENDIVTGLTCIAVVGIEDPVRPEVPDAIKKCQRAGITVRMVTGDNINTARAIATKCGILHPGEDFLCLEGKDFNRRIRNEKGEIEQERIDKIWPKLRVLARSSPTDKHTLVKGIIDSTVSDQRQVVAVTGDGTNDGPALKKADVGFAMGIAGTDVAKEASDIILTDDNFTSIVKAVMWGRNVYDSISKFLQFQLTVNVVAVIVAFTGACITQDSPLKAVQMLWVNLIMDTLASLALATEPPTESLLLRKPYGRNKPLISRTMMKNILGHAFYQLVVVFTLLFAGEKFFDIDSGRNAPLHAPPSEHYTIVFNTFVLMQLFNEINARKIHGERNVFEGIFNNAIFCTIVLGTFVVQIIIVQFGGKPFSCSELSIEQWLWSIFLGMGTLLWGQLISTIPTSRLKFLKEAGHGTQKEEIPEEELAEDVEEIDHAERELRRGQILWFRGLNRIQTQIRVVNAFRSSLYEGLEKPESRSSIHNFMTHPEFRIEDSEPHIPLIDDTDAEDDAPTKRNSSPPPSPNKNNNAVDSGIHLTIEMNKSATSSSPGSPLHSLETSL
B2: the “4. + IFNG mix” value was determined as 10 and the “4. mL1dL2 + Dox + IFNG” value is 11.

B3: GNAI2 (protein)
chain: GCTVSAEDKAAAERSKMIDKNLREDGEKAAREVKLLLLGAGESGKSTIVKQMKIIHEDGYSEEECRQYRAVVYSNTIQSIMAIVKAMGNLQIDFADPSRADDARQLFALSCTAEEQGVLPDDLSGVIRRLWADHGVQACFGRSREYQLNDSAAYYLNDLERIAQSDYIPTQQDVLRTRVKTTGIVETHFTFKDLHFKMFDVGGQRSERKKWIHCFEGVTAIIFCVALSAYDLVLAEDEEMNRMHESMKLFDSICNNKWFTDTSIILFLNKKDLFEEKITHSPLTICFPEYTGANKYDEAASYIQSKFEDLNKRKDTKEIYTHFTCATDTKNVQFVFDAVTDVIIKNNLKDCGLF
In the case of B3, the “4. + IFNG mix” value is reported as 7 and the “4. mL1dL2 + Dox + IFNG” value worked out at 10.
